Source: US7314754B2, “Polynucleotide encoding the hOT7T175 G protein coupled receptor” (Takeda Pharmaceutical Company Limited, priority 1998, dated 2008)
No end group written: not given here.

Biological target: T1, rOT7T175 (Rattus norvegicus, UniProt Q924U1)
T1 construct: expressed in transfected cells
Assay: Measurement of intracellular Ca ion concentration-increasing activity using FLIPR
Format: cell-based
Details: rOT7T175-23 cells; final peptide concentration 1×10^−5 M to 1×10^−10 M
Procedure: The stable expression cell line rOT7T175 was obtained by transduction of expression plasmid pAK-rOT175 for animal cell into CHO/dhfr^− cells, using CellPhect Transfection Kit (Amersham Pharmacia Biotech, Inc.). First, […] of Buffer A (attached to CellPhect Transfection Kit) was added to […] of plasmid DNA dissolved in […] of distilled water followed by stirring. After the mixture was settled for 10 minutes, […] of Buffer B (attached to CellPhect Transfection Kit) was added to the mixture, which was vigorously stirred to form liposomes containing the DNA. Then 4×10^5 CHO/dhfr^− cells (obtained from ATCC) were inoculated on a 60 mm Petri dish. After culturing the cells in Ham's F-12 medium (Nissui Seiyaku Co., Ltd.) supplemented with 10% fetal bovine serum (BIO WHITTAKER, Inc.) at 37° C. for 2 days in 5% carbon dioxide gas, […] of the liposomes were dropwise added to the cells in the Petri dish. After culturing the cells at 37° C. for 6 hours in 5% carbon dioxide gas, the cells were washed twice with serum-free Ham's F-12 medium and 3 ml of 15% glycerol was added to the cells in the Petri dish followed by treatment for 2 minutes. […]
The intracellular Ca ion concentration-increasing activity of the synthetic peptides obtained in (1-1) described above in rOT7T175-23 and ETA24was determined, using FLIPR (Molecular Devices, Inc.). […]

T1 sequence (Q924U1 whole entry R383V): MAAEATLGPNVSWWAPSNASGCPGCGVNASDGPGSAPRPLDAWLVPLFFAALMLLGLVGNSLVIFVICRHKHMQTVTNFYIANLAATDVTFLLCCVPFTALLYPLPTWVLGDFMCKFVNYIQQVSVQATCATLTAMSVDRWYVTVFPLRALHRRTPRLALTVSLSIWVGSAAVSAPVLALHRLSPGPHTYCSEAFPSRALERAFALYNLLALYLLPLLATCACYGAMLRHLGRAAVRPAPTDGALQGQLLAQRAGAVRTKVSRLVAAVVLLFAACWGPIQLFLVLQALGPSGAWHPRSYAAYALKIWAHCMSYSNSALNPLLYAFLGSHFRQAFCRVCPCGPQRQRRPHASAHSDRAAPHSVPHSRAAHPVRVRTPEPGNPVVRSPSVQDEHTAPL

PEPTIDE (40-54): C-terminal peptide of PEPTIDE (1-54), residues 40-54, synthesized on p-methyl BHA resin (KDLPNYNWNSFGLRF-NH2)
intracellular Ca ion concentration-increasing activity, comparison of dose response curves (FIG. 9): highest activity
